Experimental findings from patent US20220298237A1 (KEIO UNIVERSITY, published 2022) are described below.

Assay [1] addresses T1, mouse aquaporin 3 (AQP3) on cells (mouse, UniProt Q8R2N1 1-292).
T1 construct: whole, on cells; Water channel membrane protein; also called mouse AQP3; AQP3 on PAM212 cells
T1 sequence (looked up): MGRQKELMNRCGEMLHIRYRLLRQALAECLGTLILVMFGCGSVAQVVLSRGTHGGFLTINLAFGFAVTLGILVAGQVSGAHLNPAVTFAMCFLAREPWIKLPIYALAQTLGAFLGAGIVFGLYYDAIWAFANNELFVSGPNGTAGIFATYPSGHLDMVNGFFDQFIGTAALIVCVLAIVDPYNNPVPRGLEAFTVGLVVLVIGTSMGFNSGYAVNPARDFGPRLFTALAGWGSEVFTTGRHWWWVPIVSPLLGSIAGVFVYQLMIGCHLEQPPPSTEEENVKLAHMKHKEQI
Put plainly: fluorescence binding assay on PAM212 cells, 10 µg/mL. The method, then: PAM212 cells were reacted with each anti AQP3 antibody at concentrations of none, 1 ng/mL, 10 ng/mL, 100 ng/mL, 1 μg/mL, or 10 μg/mL at 4° C. for 1 hour. After washing the cells, a fluorescent-labeled secondary antibody was added and the reaction was allowed to occur additionally for 1 hour (at 4° C.). By measuring the fluorescence intensity, the binding property of each anti AQP3 antibody to cells was obtained.

The target of assay [2] is T2, oligopeptide IFATYPSGHLDM (SEQ ID NO: 108).
T2 construct: Synthetic peptide, part of Loop C of AQP3
T2 peptide: IFATYPSGHLDM
Put plainly: ELISA on coated peptide. The procedure: (§1) To determine the important amino acid residues of an epitope in Loop C involved in binding to specific AQP3 antibody clones, peptides of varying lengths were produced. The sequences of these peptides are shown in column 2 of Table 4.
(§2) The various peptides and AQP3 antibody clones were subjected to ELISA binding analyses. […] The microtiter wells (Costar 2690) were coated with 50 μL of each peptide at 4° C. overnight. The wells were washed 3 times with PBS and blocked with 100 μL of 1% BSA/PBS at 37° C. for 1 hour. Each antibody was adjusted to 1 μg/mL in 1% SBA/PBS as above then serially diluted 1:5 in 1% BSA/PBS. The blocker was discarded and the wells were incubated with 50 μL of antibodies at 37° C. for 1.5 hours. The wells were washed 3 times with PBS and mouse antibodies were detected with 50 μL of goat anti-mouse IgG (H+L) HRP conjugate (ThermoFisher 31438) (1:5,000 in 1% BSA/PBS) and rabbit antibodies were detected with 50 μL of goat anti-rabbit IgG (H+L) HRP conjugate (ThermoFisher 31462) (1:5,000 in 1% BSA/PBS) at 37° C. for 1 hour. The wells were washed 3 times with PBS and developed with 50 μL of HRP substrate at RT for 5 min then stopped with 50 μL of 2N sulfuric acid and binding was measured with a plate reader.

The target of assay [3] is T3, oligopeptide SGHLDM (SEQ ID NO: 99).
T3 construct: Synthetic peptide, part of Loop C of AQP3
T3 peptide: SGHLDM
Put plainly: ELISA on coated peptide. The method, then:
as §1, §2
A general note: An ELISA detects its analyte on a solid surface through an enzyme-linked reagent.

For assay [4], the target named is T4, oligopeptide FATYPSGHLDM (SEQ ID NO: 109).
T4 construct: Synthetic peptide, part of Loop C of AQP3
T4 peptide: FATYPSGHLDM
Put plainly: ELISA on coated peptide. The procedure:
as §1, §2

The target of assay [5] is T5, oligopeptide SGPNGTAGIFATYPS (SEQ ID NO: 94).
T5 construct: Synthetic peptide, part of Loop C of AQP3
T5 peptide: SGPNGTAGIFATYPS
Kind of assay: ELISA on coated peptide. The method, then:
as §1, §2

The target in assay [6] is T6, oligopeptide GHLDM (SEQ ID NO: 100).
T6 construct: Synthetic peptide, part of Loop C of AQP3
T6 peptide: GHLDM
Put plainly: ELISA on coated peptide. The procedure: as §1, §2

Assay [7] addresses T7, oligopeptide ATYPSGHL (SEQ ID NO: 102).
T7 construct: Synthetic peptide, part of Loop C of AQP3
T7 peptide: ATYPSGHL
Kind of assay: ELISA on coated peptide. The method, then: as §1, §2

The target in assay [8] is T8, oligopeptide TYPSGHLDM (SEQ ID NO: 96).
T8 construct: Synthetic peptide, part of Loop C of AQP3
T8 peptide: TYPSGHLDM
Kind of assay: ELISA on coated peptide. The method, then:
as §1, §2

The target in assay [9] is T9, oligopeptide ATYPSGH (SEQ ID NO: 103).
T9 construct: Synthetic peptide, part of Loop C of AQP3
T9 peptide: ATYPSGH
Kind of assay: ELISA on coated peptide. The procedure: as §1, §2

The target of assay [10] is T10, oligopeptide ATYPSG (SEQ ID NO: 104).
T10 construct: Synthetic peptide, part of Loop C of AQP3
T10 peptide: ATYPSG
Put plainly: ELISA on coated peptide. The method, then: as §1, §2

Assay [11] has as its target T11, oligopeptide ATYPSGHLD (SEQ ID NO: 101).
T11 construct: Synthetic peptide, part of Loop C of AQP3
T11 peptide: ATYPSGHLD
Put plainly: ELISA on coated peptide. The procedure:
as §1, §2

The target of assay [12] is T12, oligopeptide ATYPSGHLDM (SEQ ID NO: 1) (human and mouse).
T12 construct: Synthetic peptide; positions 148 to 157 of the human AQP3 polypeptide, identical in mouse; also called peptide used for immunization; oligopeptide 5
T12 peptide: ATYPSGHLDM
Put plainly: ELISA on coated peptide. The procedure: as §1, §2

In assay [13] the target is T13, oligopeptide PSGHLDM (SEQ ID NO: 98).
T13 construct: Synthetic peptide, part of Loop C of AQP3
T13 peptide: PSGHLDM
Kind of assay: ELISA on coated peptide. The procedure:
as §1, §2

Assay [14] has as its target T14, oligopeptide TAGIFATYPSGHLDM (SEQ ID NO: 105).
T14 construct: Synthetic peptide, part of Loop C of AQP3
T14 peptide: TAGIFATYPSGHLDM
Put plainly: ELISA on coated peptide. The procedure:
as §1, §2

Assay [15] addresses T15, oligopeptide AGIFATYPSGHLDM (SEQ ID NO: 106).
T15 construct: Synthetic peptide, part of Loop C of AQP3
T15 peptide: AGIFATYPSGHLDM
Kind of assay: ELISA on coated peptide. The method, then:
as §1, §2

The target in assay [16] is T16, oligopeptide GIFATYPSGHLDM (SEQ ID NO: 107).
T16 construct: Synthetic peptide, part of Loop C of AQP3
T16 peptide: GIFATYPSGHLDM
Kind of assay: ELISA on coated peptide. The method, then: as §1, §2

Assay [17] concerns the target T17, oligopeptide YPSGHLDM (SEQ ID NO: 97).
T17 construct: Synthetic peptide, part of Loop C of AQP3; first diluted in DMSO
T17 peptide: YPSGHLDM
Put plainly: ELISA on coated peptide. The procedure: as §1, §2

The target in assay [18] is T18, oligopeptide SRGTHGGFL (SEQ ID NO: 2).
T18 construct: Synthetic peptide of AQP3 Loop A; also called Loop A peptide; control peptide
T18 peptide: SRGTHGGFL
Put plainly: ELISA on peptide SEQ ID NO:2 (FIG. 16B).

Assay [19] deals with T12, oligopeptide ATYPSGHLDM (SEQ ID NO: 1). Kind of assay: ELISA on peptide SEQ ID NO:1, IgG, 50% binding response (FIG. 16A).
Assay [20] concerns the target T19, human aquaporin 3 (AQP3) on cells (human, UniProt Q92482 1-292).
T19 construct: whole, on cells; Water channel membrane protein; also called human AQP3; AQP3 on HaCaT cells
T19 sequence (looked up): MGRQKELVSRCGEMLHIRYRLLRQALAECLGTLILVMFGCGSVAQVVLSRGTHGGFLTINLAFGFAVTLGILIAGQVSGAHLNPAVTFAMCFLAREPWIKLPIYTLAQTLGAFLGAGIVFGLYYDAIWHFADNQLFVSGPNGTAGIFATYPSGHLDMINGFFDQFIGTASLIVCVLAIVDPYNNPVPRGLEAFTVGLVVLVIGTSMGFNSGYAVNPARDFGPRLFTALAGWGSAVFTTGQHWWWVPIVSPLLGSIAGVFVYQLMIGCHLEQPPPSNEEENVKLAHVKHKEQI
Kind of assay: fluorescence binding assay on HaCaT cells, 10 µg/mL. The method, then:
HaCaT cells were reacted with each anti AQP3 antibody at concentrations of none, 1 ng/mL, 10 ng/mL, 100 ng/mL, 1 μg/mL, or 10 μg/mL at 4° C. for 1 hour. After washing the cells, a fluorescent-labeled secondary antibody was added and the reaction was allowed to occur additionally for 1 hour (at 4° C.). By measuring the fluorescence intensity, the binding property of each anti AQP3 antibody to cells was obtained.

In assay [21] the target is T20, mouse AQP3 in lysate of HEK293T cells overexpressing mouse AQP3 and a myc-biotinylated tag (mouse, UniProt Q8R2N1 1-292).
T20 construct: Cell lysate used in ELISA; also called AQP3 containing cell lysate; not shown: myc-biotinylated tag
T20 sequence (looked up): T1 sequence (looked up)
Kind of assay: ELISA on lysate of HEK293T cells overexpressing mouse AQP3 (FIG. 3). An excerpt:
Cell lysate from HEK293T cells overexpressing mouse AQP3 and a myc-biotinylated tag was used in an ELISA assay to measure the binding of antibodies A, B, C, D, E, F, G, H, J, and K to AQP3. Cell lysate from HEK293T cells overexpressing the myc-biotinylated tag but not AQP3 was used as control. […] C. Antibody binding to AQP3 expressing cells

The target in assay [22] is T19, human aquaporin 3 (AQP3) on cells. Kind of assay: fluorescence binding assay on HaCaT cells, 10 µg/mL (FIG. 5C).
Assay [23] addresses T1, mouse aquaporin 3 (AQP3) on cells. Put plainly: fluorescence binding assay on PAM212 cells, 10 µg/mL (FIG. 5B). The procedure: PAM212 and macrophage cells were reacted with each anti AQP3 antibody (0.1, 1, or 10 μg/mL) at 4° C. for 1 hour. After washing the cells, a fluorescent-labeled secondary antibody was added and the reaction was allowed to occur additionally for 1 hour (4° C.). By measuring the fluorescence intensity, the binding property of each anti AQP3 antibody to cells was obtained.
The assay was also performed using PAM212 cells and antibodies A, B, C, D, E, F, G, H, and J at a concentration of 10 μg/mL. Binding of antibodies C, D, E, G, and J to PAM212 cells was statistically significant.

In assay [24] the target is T12, oligopeptide ATYPSGHLDM (SEQ ID NO: 1). Put plainly: ELISA on the immunogen peptide (FIG. 2).

Several values for one entry are separate records, joined by “and”; a condition that tells them apart may be missing. Equal entries are not always repeated.

B1: SC-F8 (IgG) (antibody, V domains shown)
VH: QTVKESGGRLVTPGGSLTLTCTVSRFSLSNYAMTWVRQAPGKGLEWIGIINNDGISSTWYASWVKGRFTISKTSTTMDLKMTSLTTEDTATYFCARGGTSGYDIWGPGTLVTVSL
VL: AQVLTQTPSPVSAAVGGTVTINCQSSPSVYKNYLSWYQQKPGQPPKLLIYGASTLASGVPSRFKGSGSGTQFTLTISDVQCDDAATYYCAGGYRGSSDIFAFGGGTEVVVK
notes: also called anti AQP3 antibody SC-F8
For B1, the entries for the “fold fluorescence intensity over no antibody” value in [1] and in [20] were not below 2 fold and more than 2 fold, respectively. Also, the “binding signal (plate reader)” value in assay [2] is 3.91; in assay [3], 0.071; in assay [4], 3.92; in [5], 2.99; in [6], 0.06; in [7], 3.99. The “binding signal (plate reader)” value in assay [8] was 3.92; in assay [9], 3.81; in [10], 1.77; in assay [11] it was 3.91; in assay [12], 3.97; in [13], 1.56. Further, the “binding signal (plate reader)” value in assay [14] came out at 4; in assay [15], 3.92; in [16], 3.86; in [17], 3.94. For the same molecule, the binding result in [18] is on record as “no binding”. Besides, the EC50 – broadly, the concentration needed to bring the measured effect to its halfway point – in [19] is 0.01 µg/mL and ~0.06 nM.

B2: Antibody C (antibody, mouse IgG2a, kappa, V domains shown)
VH: QVQLKQSGAELARPGASVKLSCKASGYNFKSYGISWVKQRTGQGLEWIGEIYPGSGNTYYNEKLKGKATLTADKSSSTAYMELRSLTSEDSAVYFCARTYGYDSFPWFAYWGQGTLVTVSS
VL: DIVMTQAAPSVPVTPGESVSISCRSSKSLLHSNGNTYLYWFLQRPGQSPQLLIYRVSNLASGVPDRFSGSGSGTAFTLRISRVEAEDEGVYYCMQHLEYPFTFGAGTKLEIKR
notes: also called anti AQP3 antibody C
On to B2, for which the “binding signal (plate reader)” value worked out at 2.8 in assay [2]; 0.048 in [3]; 2.8 in [4]; 0.045 in assay [5]; 0.043 in [6]; 1.69 in assay [7]. The “binding signal (plate reader)” value worked out at 1.79 in assay [8]; 0.047 in assay [9]; 0.044 in [10]; 2.52 in [11]; 2.21 in [12]; 0.271 in assay [13]. In addition, the “binding signal (plate reader)” value in assay [14] was found to be 2.81; in assay [15], 2.97; in assay [16], 2.92; in [17] it was 1.58. In addition, the binding result in assay [21], in assay [22] and in assay [23] was “binds” each time. Besides, the EC50 in assay [19] was approximately 0.1 µg/mL.

B3: Antibody E (antibody, mouse IgG2a, kappa, V domains shown)
VH: EVKLLESGAELVRPGASVTLSCKASGYTFTDYEMHWVKQTPVHGLEWIGGIDPESGGTGYNQKFKGKAILTADKSSSTAYMELRSLTSEDSAVYFCTRSGYYGSPLLDYWGQGTTLTVSS
VL: QIVLSQSPAIMSASLGERVTMTCTASSSVSSSYLHWYQQKPGSSPKLWIYSTSNLASGVPARFSGSGSGTSYSLTISSMEAEDAATYYCHQYHRSPPTFGAGTKLEIKR
notes: also called anti AQP3 antibody E; Antiboy E
Consider B3, for which the binding result in assay [21], in [24], in assay [22] and in [23] was “binds” throughout.
